Assay results from patent US8852954, “Nucleic acid molecule having binding affinity to rodent-derived IgG antibody, binder, detection reagent, and detection kit” (NEC Solution Innovators, Ltd.).

Columns and labels:
Settings in all cases: chain copies: 2 heavy + 2 light chains (inferred); label: 5'-biotin; stem-loop (predicted)
[1] = molecular target: T1, mouse IgG3 (subtype 3 IgG antibody) (Mus musculus, UniProt P03987-2 P03987-2:1-329); assay: SPR; second measurement (Example 3)
Method: (§1) The analysis of binding was performed using BIACORE 3000 (produced by GE Healthcare) according to its instruction manual. Further, from the signal intensity (RU: Resonance Unit) measured using the BIACORE, the analysis was performed with 1:1 Langmuir binding model using BIAevaluation software, and the dissociation constant between each of the aptamers and each of the mouse IgG antibodies was obtained. The conditions, method, and the like of the measurement using the BIACORE were according to the following documents.
(§2) The experiment was performed in the same manner as in Example 2 except that MIG-m034, MIG-m035, MIG-m036, MIG-m037, and MIG-m040 were used as aptamers. FIGS. 8 to 10 are graphs showing the change in the signal intensity over time and respectively show the result obtained using the subtype 1 mouse IgG, the result obtained using the subtype 2a mouse IgG, and the result obtained using the subtype 3 mouse IgG. […] The results summarized in Table 3 tell that these aptamers each have high general versatility as a secondary antibody reagent and are good in the binding force. Further, since it was considered that the base pair in the stem region and U adjacent thereto are not involved in the binding of mouse IgG from Example 1, a clone having a systematic modified base was produced to obtain the Kd value. […]

[2] = molecular target: T2, mouse IgG2a (subtype 2a IgG antibody) (Mus musculus, UniProt P01863 P01863:1-330); assay: SPR; second measurement (Example 3)
Method: as §1, §2

[3] = molecular target: T1, mouse IgG3 (subtype 3 IgG antibody); assay: SPR; BIACORE 3000, 1:1 Langmuir
Method: as §1
(§3) FIGS. 5 to 7 are graphs showing the change in the signal intensity over time. […] Further, in each of the graphs, the vertical axis indicates the signal intensity (RU) measured using the BIACORE and the horizontal axis indicates the analysis time (sec). In the horizontal axis, "100 seconds" is the time when the injection of a target to be analyzed to a flow cell at the flow rate of 20 μL/min is started. The injection was maintained for 2 minutes (120 seconds), and then a running buffer was sent for 3 minutes (180 seconds) to obtain the sensorgrams showing the interaction between the aptamers and IgG. The global fitting analysis was performed and the sensorgrams were obtained under different target concentration conditions for obtaining correct Kd values.

[4] = molecular target: T2, mouse IgG2a (subtype 2a IgG antibody); assay: SPR; BIACORE 3000, 1:1 Langmuir
Method: as §1, §3

[5] = molecular target: T1, mouse IgG3 (subtype 3 IgG antibody); assay: SPR; BIACORE 3000, 1:1 Langmuir; remark: listed apart in the source
Method: as §1
(§4) The experiment was performed in the same manner as in Example 2 except that MIG-m034, MIG-m035, MIG-m036, MIG-m037, and MIG-m040 were used as aptamers. FIGS. 8 to 10 are graphs showing the change in the signal intensity over time and respectively show the result obtained using the subtype 1 mouse IgG, the result obtained using the subtype 2a mouse IgG, and the result obtained using the subtype 3 mouse IgG. […] The results summarized in Table 3 tell that these aptamers each have high general versatility as a secondary antibody reagent and are good in the binding force. Further, since it was considered that the base pair in the stem region and U adjacent thereto are not involved in the binding of mouse IgG from Example 1, a clone having a systematic modified base was produced to obtain the Kd value. Since all the clones have substantially the same binding force to each of the mouse antibody subtypes, it was considered that the stem region was not involved in the binding with respect to all the subtypes and also that all the aptamers have the same binding mode to each of the subtypes.

[6] = molecular target: T2, mouse IgG2a (subtype 2a IgG antibody); assay: SPR; BIACORE 3000, 1:1 Langmuir; remark: listed apart in the source
Method: as §1, §4

T1 sequence (P03987 other isoform, or with tags, fused parts or gaps): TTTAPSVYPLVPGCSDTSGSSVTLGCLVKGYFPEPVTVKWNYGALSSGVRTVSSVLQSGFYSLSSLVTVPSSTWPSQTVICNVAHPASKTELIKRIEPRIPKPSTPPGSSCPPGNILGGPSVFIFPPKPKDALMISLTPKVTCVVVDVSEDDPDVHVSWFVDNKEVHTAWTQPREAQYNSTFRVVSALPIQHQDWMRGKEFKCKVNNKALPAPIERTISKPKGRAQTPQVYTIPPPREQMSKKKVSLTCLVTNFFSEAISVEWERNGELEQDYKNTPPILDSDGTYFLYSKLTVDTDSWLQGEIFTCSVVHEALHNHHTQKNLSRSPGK
T2 sequence (P01863 whole entry, one chain of several): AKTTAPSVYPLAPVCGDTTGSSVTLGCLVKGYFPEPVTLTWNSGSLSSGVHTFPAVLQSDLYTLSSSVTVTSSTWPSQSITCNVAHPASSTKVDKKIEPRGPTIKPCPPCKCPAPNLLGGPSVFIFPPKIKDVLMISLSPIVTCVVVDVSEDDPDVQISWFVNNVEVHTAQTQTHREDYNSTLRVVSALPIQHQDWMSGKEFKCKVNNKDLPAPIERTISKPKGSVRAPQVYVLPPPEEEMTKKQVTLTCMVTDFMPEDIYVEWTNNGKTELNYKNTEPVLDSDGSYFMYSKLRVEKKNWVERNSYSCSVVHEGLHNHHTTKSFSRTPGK

Row | Binder | Kd [1] | Kd [2] | Kd [3] | Kd [4] | Kd [5] | Kd [6]
1 | AAAAACGCUGAAGAGAAGACGGAAGGAGACGAAGCGT (mixed, RNA with 5'-dA5 (1-5), LNA at C6 G7 C35 G36, 3'-dT37) [MIG-m034] | 8.33 nM | 1.09 nM | 8.8 nM | 0.995 nM |  | 
2 | AAAAACGCUGAAGAGAAGACGGAAGGAGACGAAGCGT (mixed, RNA with 5'-dA5 (1-5), LNA at C6 G7 C35 G36, 2'-OMe U9, 3'-dT37) [MIG-m042] |  |  | 5.57 nM | 0.436 nM |  | 
3 | AAAAAGCGCUGAAGAGAAGACGGAAGGAGACGAAGCGC (mixed, RNA with 5'-dA5 (1-5), DNA at G6 C7 G37 C38) [MIG-m036] |  |  |  |  | 13.8 nM | 4.61 nM
4 | AAAAAGCGCUGAAGAGAAGACGGAAGGAGACGAAGCGC (mixed, RNA with 5'-dA5 (1-5), DNA at 6-9 and 35-38, 2'-OMe U10) [MIG-m041] |  |  | 8.4 nM | 0.959 nM |  | 
5 | AAAAAGCGCUGAAGAGAAGACGGAAGGAGACGAAGCGC (mixed, RNA with 5'-dA5 (1-5), 2'-OMe U10) [MIG-m040] |  |  |  |  | 3.46 nM | 1.23 nM
6 | AAAAAGCGCUGAAGAGAAGACGGAAGGAGACGAAGCGC (mixed, RNA with 5'-dA5 (1-5), DNA at 6-9 and 35-38) [MIG-m037] |  |  |  |  | 9.85 nM | 3.7 nM
7 | AAAAAGCUGAAGAGAAGACGGAAGGAGACGAAGCT (mixed, RNA with 5'-dA5 (1-5), LNA at G6 C7 G33 C34, 3'-dT35) [MIG-m035] |  |  |  |  | 139 nM | 1.92 nM
